Experimental findings from paper PMC13042984 are described below.

The target in this data set is RFX5 DBD (Homo sapiens) (UniProt P48382). Briefly: EMSA. The settings on record: KD values only in figure; hmC/mC CpG; EMSA: 20 mM HEPES, 30 mM KCl, 1 mM EDTA, 1 mM (NH4)2SO4, 0.2% Tween 20, 1 mM DTT, 5 uM dA:dT competitor, 2 nM DNA, 20 min, 21 C (pH not stated); pulldown: 50 mM. Background: In EMSA bound probe runs differently from free probe, usually more slowly.
RFX5 DBD (Homo sapiens), sequence (P48382 75-168): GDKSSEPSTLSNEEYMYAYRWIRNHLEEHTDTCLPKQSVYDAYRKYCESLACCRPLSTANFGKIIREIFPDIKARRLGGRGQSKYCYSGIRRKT

Turning to X-box 1 probe hmC/mC, the binding signal (fold weaker than mC/mC (KD)) amounted to 2.5.
